Experimental data published in patent publication US20110269161.

Key:
[1] = tested on: T1, peptide C6 (TKRSGSVYEPPFR), derived from phosphorylase b kinase regulatory subunit beta (Ser26)
T1 sequence: TKRSGSVYEPPFR

[2] = tested on: T2, peptide F6 (RIRTQSFSLQPFR), derived from nitric-oxide synthase, endothelial (Ser1176)
T2 sequence: RIRTQSFSLQPFR

[3] = tested on: T3, peptide A6 (RPGPQSPGSPPFR), derived from neutrophil cytosol factor 1
T3 sequence: RPGPQSPGSPPFR

[4] = tested on: T4, peptide B11 (LKLSPSPSSRPFR), derived from lamin-b1 (Ser392)
T4 sequence: LKLSPSPSSRPFR

[5] = tested on: T5, peptide C2 (IPTGTTPQRKPFR), derived from kinesin-like protein kif11 (Thr927)
T5 sequence: IPTGTTPQRKPFR

[6] = tested on: seven peptides sharing a common motif of [S/T]-Pro and clear upregulation by G2/M arrest
[7] = tested on: peptide H5 (EYDRLYEEYTPFR), derived from Phosphatidylinositol 3-kinase regulatory subunit p85α(Tyr-467)/p55γ(Tyr-199)

In the case of “Akt1 (full length), purified human active kinase”, the “in vitro peptide phosphorylation by purified kinase (KAYAK, LC-MS)” value [1] is reported as “this peptide was not significantly phosphorylated by Akt” and the “peptide phosphorylation, 100 µM peptide reacted individually” value [2] is reported as “both RSK and Akt demonstrated strong phosphorylation”.

In the case of “Cdc2/cyclin B1 (full length), purified complex”, the “phosphorylation by purified kinase complex (KAYAK profiling of 90 peptides)” value [3] is reported as “purified Cdc2/Cyclin B1 complex phosphorylated all 7 peptides along with 4 other up-regulated peptides”, the “phosphorylation by purified kinase complex (KAYAK profiling of 90 peptides)” value [4] is reported as “purified Cdc2/Cyclin B1 complex phosphorylated all 7 peptides along with 4 other up-regulated peptides” and the “phosphorylation by purified kinase complex (KAYAK profiling of 90 peptides)” value [5] is reported as “purified Cdc2/Cyclin B1 complex phosphorylated all 7 peptides along with 4 other up-regulated peptides”. The “phosphorylation by purified kinase complex (KAYAK profiling of 90 peptides)” value [6] was “purified Cdc2/Cyclin B1 complex phosphorylated all 7 peptides along with 4 other up-regulated peptides”.

With “Src (full length), purified human active kinase” the “in vitro kinase reaction with purified kinase” value [7] was “robust phosphorylation by Src but not EGFR”.
